Data taken from US20130280279A1, “PHARMACEUTICAL COMPOSITION OF A COMPLEX OF AN ANTI-DIG ANTIBODY AND DIGOXIGENIN THAT IS CONJUGATED TO A PEPTIDE” (HOFFMANN-LA ROCHE INC., priority 2011, published 2013).

Molecular target: human NPY2 receptor on HEK293/hNPY2R cells (human) (UniProt P49146)
Assay: cell-based or functional assay

PYY(3-36) (peptide)
IC50 value of the cAMP assay (inhibition of Forskolin stimulated cAMP accumulation in HEK293/hNPY2R cells): 0.012 nM
